T1: human TNFR1 (human, UniProt P19438 30-455)
T1 construct: whole, on cells
T1 sequence (looked up): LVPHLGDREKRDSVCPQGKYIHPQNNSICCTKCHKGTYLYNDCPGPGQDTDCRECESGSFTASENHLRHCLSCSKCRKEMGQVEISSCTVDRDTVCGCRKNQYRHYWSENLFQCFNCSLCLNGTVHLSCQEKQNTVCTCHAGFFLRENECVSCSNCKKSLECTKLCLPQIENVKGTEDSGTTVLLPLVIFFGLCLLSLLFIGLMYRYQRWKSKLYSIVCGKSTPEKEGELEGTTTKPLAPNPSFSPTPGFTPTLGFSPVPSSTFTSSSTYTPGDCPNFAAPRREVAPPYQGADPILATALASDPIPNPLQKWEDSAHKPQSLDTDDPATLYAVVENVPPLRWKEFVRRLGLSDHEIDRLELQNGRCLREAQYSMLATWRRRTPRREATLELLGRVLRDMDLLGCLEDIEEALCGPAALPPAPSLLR

T2: human TNFR2 (human, UniProt P20333 23-461)
T2 construct: whole, on cells
T2 sequence (looked up): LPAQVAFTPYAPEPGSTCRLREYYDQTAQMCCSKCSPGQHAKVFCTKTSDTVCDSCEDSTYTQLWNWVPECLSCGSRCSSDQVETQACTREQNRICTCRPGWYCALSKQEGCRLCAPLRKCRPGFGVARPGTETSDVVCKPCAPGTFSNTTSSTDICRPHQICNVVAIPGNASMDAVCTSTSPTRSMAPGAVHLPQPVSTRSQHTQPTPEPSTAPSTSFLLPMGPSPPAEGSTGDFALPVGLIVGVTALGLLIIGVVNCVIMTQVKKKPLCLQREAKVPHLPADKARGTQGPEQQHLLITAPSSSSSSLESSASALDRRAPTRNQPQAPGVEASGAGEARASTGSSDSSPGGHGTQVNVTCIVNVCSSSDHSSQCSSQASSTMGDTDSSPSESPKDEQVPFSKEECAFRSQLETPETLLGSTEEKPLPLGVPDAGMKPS

T3: human TNFR14 (human, UniProt Q92956 39-283)
T3 construct: whole, on cells
T3 sequence (looked up): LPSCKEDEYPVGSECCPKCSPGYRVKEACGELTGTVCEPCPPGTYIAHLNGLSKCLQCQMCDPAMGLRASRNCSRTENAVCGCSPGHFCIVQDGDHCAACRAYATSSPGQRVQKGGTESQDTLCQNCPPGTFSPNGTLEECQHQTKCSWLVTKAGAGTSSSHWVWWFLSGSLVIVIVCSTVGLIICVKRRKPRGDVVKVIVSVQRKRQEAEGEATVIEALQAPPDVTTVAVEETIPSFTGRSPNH

T4: cynomolgus monkey CD40 on cells (cynomolgus monkey, UniProt P25942 21-277 (human entry))
T4 construct: also called cyno CD40 on HEK293 cells; CD40 on cynomolgus monkey B cells
T4 chain: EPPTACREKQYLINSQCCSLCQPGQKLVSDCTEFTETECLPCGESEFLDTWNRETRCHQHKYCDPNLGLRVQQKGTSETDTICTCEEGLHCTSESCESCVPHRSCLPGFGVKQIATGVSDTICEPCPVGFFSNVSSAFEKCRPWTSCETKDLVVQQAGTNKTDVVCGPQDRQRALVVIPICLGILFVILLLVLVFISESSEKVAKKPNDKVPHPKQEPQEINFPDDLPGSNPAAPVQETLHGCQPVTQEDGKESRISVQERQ

T5: mouse CD40 on cells (mouse, UniProt P27512 20-289)
T5 construct: whole, on cells; also called mouse CD40 on HEK293 cells; CD40 on mouse B cells
T5 sequence (looked up): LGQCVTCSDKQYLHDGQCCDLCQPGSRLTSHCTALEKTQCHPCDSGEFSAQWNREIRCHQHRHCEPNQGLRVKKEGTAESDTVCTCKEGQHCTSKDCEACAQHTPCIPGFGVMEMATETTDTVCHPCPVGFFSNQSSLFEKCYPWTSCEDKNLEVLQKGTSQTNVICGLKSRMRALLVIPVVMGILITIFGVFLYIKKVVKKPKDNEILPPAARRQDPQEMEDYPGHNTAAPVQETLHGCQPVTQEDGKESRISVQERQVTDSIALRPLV


Legend:
human TNFR1 [1] = biological target: T1, human TNFR1; experiment: flow cytometry, HEK293 transfectants
Experimental: (§1) The binding affinity of anti-human CD40 antibodies to human and cynomolgus monkey CD40 was measured by Octet assay (Table 3), quantifying association rate (Kon), disassociation rate (Kdis), and equilibrium binding constant (KD). Cross-reactivity of anti-CD40 antibodies to related TNF receptor superfamily (TNFRSF) members was evaluated by expressing human TNFR1, TNFR2, TNFR10, or TNFR14 on HEK293 cells by transient transfection of expression vectors encoding these genes. Binding of indicated anti-human CD40 antibody to these transfected cells was determined by flow cytometry. […] Cross-reactivity of anti-CD40 antibodies to cynomolgus monkey and mouse CD40 was evaluated by expressing cynomolgus monkey or mouse CD40 on HEK293 cells by transient transfection of expression vectors encoding these genes. Binding of indicated anti-human CD40 antibody to cells overexpressing cynomolgus monkey and mouse CD40 was determined by flow cytometry.

human TNFR2 [2] = biological target: T2, human TNFR2; experiment: flow cytometry, HEK293 transfectants
Experimental: as §1

human TNFR14 [3] = biological target: T3, human TNFR14; experiment: flow cytometry, HEK293 transfectants
Experimental: as §1

[4] = biological target: T4, cynomolgus monkey CD40 on cells; experiment: flow cytometry, HEK293 transfectants vs control cells
Experimental: as §1

mouse CD40 on cells = biological target: T5, mouse CD40 on cells; experiment: as above
Experimental: as §1

human TNFR1 [5] = biological target: T1, human TNFR1; experiment: as above
Experimental: as §1

human TNFR2 [6] = biological target: T2, human TNFR2; experiment: as above
Experimental: as §1

human TNFR10 = biological target: T6, human TNFR10 (human); experiment: as above
T6 construct: whole, on cells; Name as printed is ambiguous (TNFRSF10A-D)
Experimental: as §1

human TNFR14 [7] = biological target: T3, human TNFR14; experiment: as above
Experimental: as §1

human CD40 on cells [8] = biological target: T7, human CD40 on cells (human, UniProt P25942 21-277); experiment: flow cytometry, labelled CD40L on CD40-293T cells, antibody at 5 ug/ml
T7 construct: also called CD40 receptor on human B cells
Experimental: (§2) Percent ligand binding inhibition was calculated as [(CD40L binding gMFI in the absence of anti-CD40)−(CD40L binding gMFI in the presence of anti-CD40)]/(CD40L binding gMFI in the absence of anti-CD40). gMFI: geometric mean fluorescent intensity. All anti-CD40 antibodies show minimal effects on the ability of CD40L to bind to the CD40 receptor (Table 7).

human CD40 on cells [9] = biological target: T7, human CD40 on cells; experiment: flow cytometry, labelled CD40L on CD40-293T cells, antibody at 20 ug/ml
Experimental: as §2

T7 sequence (P25942 21-277 limits assumed): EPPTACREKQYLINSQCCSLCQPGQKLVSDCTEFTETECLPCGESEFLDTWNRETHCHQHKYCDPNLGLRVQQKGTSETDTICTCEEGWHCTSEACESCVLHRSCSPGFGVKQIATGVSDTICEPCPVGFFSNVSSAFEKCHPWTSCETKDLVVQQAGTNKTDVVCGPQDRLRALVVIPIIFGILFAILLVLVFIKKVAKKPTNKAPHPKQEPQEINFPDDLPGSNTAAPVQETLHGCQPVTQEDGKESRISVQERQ

| Binder | binding result (human TNFR1 [1]) | binding result (human TNFR2 [2]) | binding result (human TNFR14 [3]) | fold over control (gMFI) [4] [fold] | fold over control (gMFI) (mouse CD40 on cells) [fold] | fold over control (gMFI) (human TNFR1 [5]) [fold] | fold over control (gMFI) (human TNFR2 [6]) [fold] | fold over control (gMFI) (human TNFR10) [fold] | fold over control (gMFI) (human TNFR14 [7]) [fold] | Ligand Binding Inhibition (%) (human CD40 on cells [8]) | Ligand Binding Inhibition (%) (human CD40 on cells [9]) |
| --- | --- | --- | --- | --- | --- | --- | --- | --- | --- | --- | --- |
| 33H6 (antibody, IgG4, V domains shown, also called 4883-1) VH: QVQLVQSGAEVKKPGASVKVSCKASGYTFPGYYMYWLRQAPGQGLEWMGWINPDSGDTNYAQKFQGRVTMTRDTSISTAFMELSRLRSDDTAVYYCAREKPRYFDSFYYYLMDVWGQGTTVTVSS VL: DIQMTQSPSSLSASVGDRVTITCRAGQNISRHLNWYQQNPGKAPKVLIHPASSLPSGVPSRFSGSGSGTDFSLTISSLQPEDFGTYFCQQSYSTPPTFGGGTKVELKR | no binding | no binding | no binding | 74 | 0.9 | 1 | 0.81 | 0.77 | 0.8 | 4 | 7 |
| 35F11 (antibody, IgG4, V domains shown, also called 4868-1) VH: QVQLVESGGGVVQPGRSLRLSCAASGFTLSSYGMHWVRQAPGKGLEWVAVIWYDGSNKYYADSVKGRVTISRDNSKNTLYLQMNSLRAEDTAVYYCTRDGRNYVYFDNWGQGTLVTVSS VL: QSALTQPRSVSGSPGQSVTISCTGTSSDVGGYIFVSWYQQHPGKAPKLMIYDVSKRPSGVPDRFSGSKSVNTASLTISGLQAEDETDYYCCSYAGNYTYVFGTGTKVTVLG | no binding | no binding | no binding | 76 | 0.8 | 1 | 0.85 | 0.73 | 0.74 | -5 | 8 |

Now from value to binder:

| binding result (human TNFR1 [1]) | binding result (human TNFR2 [2]) | binding result (human TNFR14 [3]) | fold over control (gMFI) [4] [fold] | fold over control (gMFI) (mouse CD40 on cells) [fold] | fold over control (gMFI) (human TNFR1 [5]) [fold] | fold over control (gMFI) (human TNFR2 [6]) [fold] | fold over control (gMFI) (human TNFR10) [fold] | fold over control (gMFI) (human TNFR14 [7]) [fold] | Ligand Binding Inhibition (%) (human CD40 on cells [8]) | Ligand Binding Inhibition (%) (human CD40 on cells [9]) | Binder |
| --- | --- | --- | --- | --- | --- | --- | --- | --- | --- | --- | --- |
| no binding | no binding | no binding | 71 | 0.8 | 0.98 | 0.88 | 0.89 | 0.84 | -8 | -7 | 29H10 (antibody, V domains shown, also called 4877-1) VH: QVQLVQSGAEVTKPGASVKVSCKASGYTFAGYYMHWVRQAPGQGLEWMGWINPHSGGTNYAQKFQDRVTMTRDTSINTAYMELSRLRSDDTAVYYCARERISMVRGVGHNWFAPWGQGTLVTVSS VL: DIQMTQSPSSLSASVGDRVTITCRASQDISNNLAWFQQKPGKPPKSLMYAASSLHSGVPSTFSGSGSGTDFTFTISSLQPEDFATYYCQQYNSYPLTFGGGTKVEIRR |
| no binding | no binding | no binding | 82 | 0.9 | 0.99 | 0.92 | 0.86 | 0.88 | 10 | 1 | 36F3 (antibody, IgG4, V domains shown, also called 4891-1) VH: QVQLQQSGPGLVKPSQTLSLTCAISGDSVSSSRTAWNWIRQSPSRGLEWLGRTYYRSKWYHDYSVSVKSRITIDPDTSKNQFSLQLNSVTPEDTAVYYCARGAAPFDYWGQGTLVTVSS VL: EIVLTQSPGTLSLSPGERATLSCRASQSVSSNYLAWYQQKPGQAPRALIYAASNRAAGISDRFSGSGSGTDFTLTISRLEPEDFAVYFCQQYGSSPLTFGGGTKVEIKR |
| no binding | no binding | no binding | 92 | 0.9 | 0.99 | 0.87 | 0.88 | 0.87 | 2 | 12 | 37A6 (antibody, IgG4, V domains shown, also called 4865-1) VH: QVQLVESGGGLVKPGGSLRLSCAASEFTFSDYYMSWIRQAPGKGLEWVSYISRSGDTIYYADSVKGRFTISRDNAKNSLYLQMNGLRAEDTAVYYCARDLAAGATGGLDCWGQGTLVTVSS VL: SYELTQPPSVSVSPGQTASITCSGERLGNKYICWYQQKPGQSPVLVIYQDFKRPSGIPERFSGSNSGITATLTISGTQAMDEADYYCQAWDSRTVVFGGGTKLTVLG |

From patent US20260109776A1 (Amgen, published 2026)
